Measurements from publication PMC9482650, “Quantitative fragmentomics allow affinity mapping of interactomes” (Nature Communications, 2022).

Assays:
Test in all cases: holdup assay
Parameters in all cases: key: below the threshold = too weak to quantify, mostly under pKd 3.1 to 4
[1] = target: Inadl_3, Q8NI35
[2] = target: T1, PDZD7_3, Q9H5P4
T1 sequence (Q9H5P4 857-944, limits assumed, looked up): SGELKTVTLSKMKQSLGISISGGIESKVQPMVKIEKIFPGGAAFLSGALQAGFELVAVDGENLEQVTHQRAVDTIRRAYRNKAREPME

[3] = target: HTRA1, Q92743
Sequence of HTRA1, Q92743 (Q92743 360-477): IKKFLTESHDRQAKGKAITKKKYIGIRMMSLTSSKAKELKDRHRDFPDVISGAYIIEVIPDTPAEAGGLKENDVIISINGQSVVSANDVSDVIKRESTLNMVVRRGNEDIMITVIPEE

[4] = target: T2, PDZD2_2, O15018
T2 sequence (O15018 329-429, limits assumed, looked up): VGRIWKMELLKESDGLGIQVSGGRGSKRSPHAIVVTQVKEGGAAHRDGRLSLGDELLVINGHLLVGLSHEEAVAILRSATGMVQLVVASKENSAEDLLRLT

[5] = target: MAGI2_2, Q86UL8
Sequence of MAGI2_2, Q86UL8 (Q86UL8 410-522): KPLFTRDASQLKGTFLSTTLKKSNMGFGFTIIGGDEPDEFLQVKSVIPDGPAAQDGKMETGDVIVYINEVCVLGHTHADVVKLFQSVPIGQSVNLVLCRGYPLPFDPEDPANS

[6] = target: Inadl_5, Q8NI35
Sequence of Inadl_5, Q8NI35 (Q8NI35 673-780): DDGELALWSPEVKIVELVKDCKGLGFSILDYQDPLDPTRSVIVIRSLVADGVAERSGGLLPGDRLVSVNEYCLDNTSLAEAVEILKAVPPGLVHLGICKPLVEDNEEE

[7] = target: IL16_3, Q14005
Sequence of IL16_3, Q14005 (Q14005 1107-1207): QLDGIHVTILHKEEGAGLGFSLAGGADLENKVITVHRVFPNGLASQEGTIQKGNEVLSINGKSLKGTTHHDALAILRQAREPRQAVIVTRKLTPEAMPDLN

[8] = target: T3, HTRA3, P83110
T3 sequence (P83110 354-453, limits assumed, looked up): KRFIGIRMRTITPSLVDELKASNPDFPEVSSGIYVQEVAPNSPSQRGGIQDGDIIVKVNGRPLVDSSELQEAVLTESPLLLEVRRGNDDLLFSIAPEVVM

[9] = target: T4, FRMPD1, Q5SYB0
T4 sequence (Q5SYB0 52-145, limits assumed, looked up): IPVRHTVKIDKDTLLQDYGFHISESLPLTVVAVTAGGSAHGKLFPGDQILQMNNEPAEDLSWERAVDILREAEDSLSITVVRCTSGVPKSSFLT

[10] = target: T5, SIPA1L2, Q9P2F8
T5 sequence (Q9P2F8 945-1036, limits assumed, looked up): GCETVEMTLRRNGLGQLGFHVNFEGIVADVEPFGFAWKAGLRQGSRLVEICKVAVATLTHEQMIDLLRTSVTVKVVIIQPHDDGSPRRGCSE

[11] = target: FRMPD4, Q14CM0
Sequence of FRMPD4, Q14CM0 (Q14CM0 67-160): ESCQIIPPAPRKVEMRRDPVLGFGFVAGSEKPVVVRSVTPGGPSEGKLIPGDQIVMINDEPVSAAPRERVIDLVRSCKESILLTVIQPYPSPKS

[12] = target: T6, TJP3_3, O95049
T6 sequence (O95049 375-456, limits assumed, looked up): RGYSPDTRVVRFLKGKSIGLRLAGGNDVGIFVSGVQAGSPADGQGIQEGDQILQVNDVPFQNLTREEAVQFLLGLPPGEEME

[13] = target: T7, DLG3_2, Q92796
T7 sequence (Q92796 221-321, limits assumed, looked up): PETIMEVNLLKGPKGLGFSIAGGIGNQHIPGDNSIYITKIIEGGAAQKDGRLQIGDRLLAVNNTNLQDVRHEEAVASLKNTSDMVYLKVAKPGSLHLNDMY

[14] = target: T8, SNTG2, Q9NY99
T8 sequence (Q9NY99 68-166, limits assumed, looked up): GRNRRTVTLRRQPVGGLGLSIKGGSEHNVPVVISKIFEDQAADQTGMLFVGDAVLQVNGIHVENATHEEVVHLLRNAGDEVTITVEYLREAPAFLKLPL

[15] = target: GRIP2_7, Q9C0E4
Sequence of GRIP2_7, Q9C0E4 (Q9C0E4 934-1023): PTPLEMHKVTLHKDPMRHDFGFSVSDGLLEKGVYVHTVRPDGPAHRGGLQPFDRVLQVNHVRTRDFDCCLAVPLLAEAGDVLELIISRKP

[16] = target: TJP1_3, Q07157
Sequence of TJP1_3, Q07157 (Q07157 416-512): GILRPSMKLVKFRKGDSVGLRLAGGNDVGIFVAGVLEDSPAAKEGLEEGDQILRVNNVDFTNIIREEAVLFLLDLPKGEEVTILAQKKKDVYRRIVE

[17] = target: NHERF4_4, Q86UT5
Sequence of NHERF4_4, Q86UT5 (Q86UT5 464-550): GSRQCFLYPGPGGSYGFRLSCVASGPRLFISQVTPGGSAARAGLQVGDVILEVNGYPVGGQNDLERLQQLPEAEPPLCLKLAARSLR

[18] = target: T9, APBA3_1, O96018
T9 sequence (O96018 389-490, limits assumed, looked up): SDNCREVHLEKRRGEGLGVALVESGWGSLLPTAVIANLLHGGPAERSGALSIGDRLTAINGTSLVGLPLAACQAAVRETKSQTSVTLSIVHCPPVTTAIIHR

[19] = target: HTRA2, O43464
Sequence of HTRA2, O43464 (O43464 355-458): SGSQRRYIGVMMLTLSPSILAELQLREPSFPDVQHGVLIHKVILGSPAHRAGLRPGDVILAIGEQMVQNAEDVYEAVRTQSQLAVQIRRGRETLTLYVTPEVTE

[20] = target: LIMK2, P53671
Sequence of LIMK2, P53671 (P53671 143-248): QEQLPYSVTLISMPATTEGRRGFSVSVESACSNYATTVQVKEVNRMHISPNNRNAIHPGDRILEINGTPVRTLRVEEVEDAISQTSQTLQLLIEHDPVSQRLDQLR

[21] = target: MAGI2_6, Q86UL8
Sequence of MAGI2_6, Q86UL8 (Q86UL8 1141-1229): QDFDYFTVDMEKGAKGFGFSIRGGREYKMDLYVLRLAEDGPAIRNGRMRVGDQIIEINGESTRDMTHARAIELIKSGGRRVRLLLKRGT

[22] = target: FRMPD2_3, Q68DX3
Sequence of FRMPD2_3, Q68DX3 (Q68DX3 1073-1166): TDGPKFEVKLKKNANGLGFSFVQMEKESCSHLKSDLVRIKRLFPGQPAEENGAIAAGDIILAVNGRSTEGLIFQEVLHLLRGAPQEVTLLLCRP

[23] = target: T10, GRIP1_5, Q9Y3R0
T10 sequence (Q9Y3R0 568-668, limits assumed, looked up): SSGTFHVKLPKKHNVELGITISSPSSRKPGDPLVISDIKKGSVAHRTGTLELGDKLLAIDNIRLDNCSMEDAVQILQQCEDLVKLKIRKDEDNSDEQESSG

[24] = target: GORASP1, Q9BQQ3
Sequence of GORASP1, Q9BQQ3 (Q9BQQ3 1-208): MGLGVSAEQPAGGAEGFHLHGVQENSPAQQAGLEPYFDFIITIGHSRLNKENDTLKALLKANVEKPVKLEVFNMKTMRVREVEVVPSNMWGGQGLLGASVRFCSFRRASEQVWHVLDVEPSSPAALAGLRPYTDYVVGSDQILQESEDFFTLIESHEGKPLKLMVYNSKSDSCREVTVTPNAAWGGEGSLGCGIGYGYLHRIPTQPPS

[25] = target: LNX1_2, Q8TBB1
Sequence of LNX1_2, Q8TBB1 (Q8TBB1 371-470): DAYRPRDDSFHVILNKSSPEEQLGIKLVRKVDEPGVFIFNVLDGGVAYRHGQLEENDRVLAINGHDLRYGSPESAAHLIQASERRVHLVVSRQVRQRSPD

[26] = target: T11, GRIP1_4, Q9Y3R0
T11 sequence (Q9Y3R0 467-571, limits assumed, looked up): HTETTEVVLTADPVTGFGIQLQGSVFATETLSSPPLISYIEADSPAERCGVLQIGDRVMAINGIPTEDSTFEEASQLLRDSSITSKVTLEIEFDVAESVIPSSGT

[27] = plain residues with an end cap or a label only (N-terminal biotin on a linker: ttds)
[28] = plain residues with an end cap or a label only (N-terminal biotin on a linker: ahx)

Sequence of Inadl_3, Q8NI35 (Q8NI35 359-469): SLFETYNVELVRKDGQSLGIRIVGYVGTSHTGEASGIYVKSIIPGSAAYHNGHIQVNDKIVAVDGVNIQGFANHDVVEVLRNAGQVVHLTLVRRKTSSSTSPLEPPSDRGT

## SSLQSLETSV [ATP2B4, P23634]
[1]; [27]
  pKd: 3.56
[2]; [27]
  pKd: 4.48
[3]; [27]
  pKd: 3.9
[4]; [27]
  pKd: 4.56
[5]; [27]
  pKd: 4.49
[6]; [27]
  pKd: below the threshold
[7]; [27]
  pKd: below the threshold
[8]; [27]
  pKd: 3.51
[9]; [27]
  pKd: below the threshold
[10]; [27]
  pKd: below the threshold
[11]; [27]
  pKd: below the threshold
[12]; [27]
  pKd: 3.71
[13]; [27]
  pKd: 5.2
[14]; [27]
  pKd: 4.89
[15]; [27]
  pKd: 3.52
[16]; [27]
  pKd: below the threshold
[17]; [27]
  pKd: below the threshold
[18]; [27]
  pKd: below the threshold
[19]; [27]
  pKd: below the threshold
[20]; [27]
  pKd: below the threshold
[21]; [27]
  pKd: 4.55
[22]; [27]
  pKd: below the threshold
[23]; [27]
  pKd: below the threshold
[24]; [27]
  pKd: below the threshold
[25]; [27]
  pKd: 3.7
[26]; [27]
  pKd: below the threshold

## HNAFLSVTTV [PDZRN4, Q6ZMN7]
[1]; [28]
  pKd: 3.66
[2]; [28]
  pKd: 4.71
[3]; [28]
  pKd: 3.61
[4]; [28]
  pKd: 3.49
[5]; [28]
  pKd: 3.54
[6]; [28]
  pKd: below the threshold
[7]; [28]
  pKd: below the threshold
[8]; [28]
  pKd: below the threshold
[9]; [28]
  pKd: below the threshold
[10]; [28]
  pKd: below the threshold
[11]; [28]
  pKd: 3.5
[12]; [28]
  pKd: below the threshold
[13]; [28]
  pKd: 3.61
[14]; [28]
  pKd: 3.6
[15]; [28]
  pKd: below the threshold
[16]; [28]
  pKd: below the threshold
[17]; [28]
  pKd: below the threshold
[18]; [28]
  pKd: below the threshold
[19]; [28]
  pKd: below the threshold
[20]; [28]
  pKd: below the threshold
[21]; [28]
  pKd: below the threshold
[22]; [28]
  pKd: below the threshold
[23]; [28]
  pKd: 3.55
[24]; [28]
  pKd: below the threshold
[25]; [28]
  pKd: 3.65
[26]; [28]
  pKd: below the threshold

## GYDWGPATDL [TJP3, O95049]
[1]; [28]
  pKd: 3.72
[2]; [28]
  pKd: 4.14
[3]; [28]
  pKd: 4.12
[4]; [28]
  pKd: 4.46
[5]; [28]
  pKd: below the threshold
[6]; [28]
  pKd: below the threshold
[7]; [28]
  pKd: below the threshold
[8]; [28]
  pKd: below the threshold
[9]; [28]
  pKd: below the threshold
[10]; [28]
  pKd: below the threshold
[11]; [28]
  pKd: 3.83
[12]; [28]
  pKd: below the threshold
[13]; [28]
  pKd: 3.78
[14]; [28]
  pKd: 4.32
[15]; [28]
  pKd: below the threshold
[16]; [28]
  pKd: below the threshold
[17]; [28]
  pKd: below the threshold
[18]; [28]
  pKd: below the threshold
[19]; [28]
  pKd: below the threshold
[20]; [28]
  pKd: below the threshold
[21]; [28]
  pKd: 5.24
[22]; [28]
  pKd: below the threshold
[23]; [28]
  pKd: below the threshold
[24]; [28]
  pKd: below the threshold
[25]; [28]
  pKd: below the threshold
[26]; [28]
  pKd: below the threshold
